# Entries after “also recorded” stand apart in the source; their conditions may differ.
# T1: human catalase (Homo sapiens, UniProt P04040)
# T1 sequence (P04040 2-527 limits assumed): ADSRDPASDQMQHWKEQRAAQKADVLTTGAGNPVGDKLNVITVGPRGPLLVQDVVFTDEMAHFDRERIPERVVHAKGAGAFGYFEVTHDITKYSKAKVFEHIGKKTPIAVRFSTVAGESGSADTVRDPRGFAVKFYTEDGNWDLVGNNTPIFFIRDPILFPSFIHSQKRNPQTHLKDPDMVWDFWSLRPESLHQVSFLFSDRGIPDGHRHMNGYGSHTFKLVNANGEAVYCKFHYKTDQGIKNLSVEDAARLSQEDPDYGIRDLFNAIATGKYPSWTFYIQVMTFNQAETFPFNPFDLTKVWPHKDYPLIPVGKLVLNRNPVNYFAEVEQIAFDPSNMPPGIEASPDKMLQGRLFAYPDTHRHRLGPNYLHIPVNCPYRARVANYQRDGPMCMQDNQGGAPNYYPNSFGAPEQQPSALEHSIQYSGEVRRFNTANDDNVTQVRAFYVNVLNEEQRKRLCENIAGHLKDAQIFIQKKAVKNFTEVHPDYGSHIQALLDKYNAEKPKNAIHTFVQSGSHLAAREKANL
# What was measured:
# [1] = test system: MKN-45 gastric carcinoma cells; test: Standard preparation for autocrine ROS-controlled apoptosis induction in tumor cells (percentage of apoptotic cells); type: cell-based, human; conditions: for apoptosis induction in MKN-45 cells: increasing concentrations, 3-4 hours at 37° C., 5% CO2
# Method: (§1) The experiments shown in FIG. 13-24 were carried out with a standard preparation for the apoptosis induction that is based on the method performed in Heinzelmann and Bauer 2010. The tumor cells used were taken from an optimally growing semi-sealed culture, centrifuged and placed in fresh medium. The test was performed in 96-well cell culture plates with 12 500 MKN-45 cells/100 μl medium or 10 000 SHEP cells/100 μl medium. MKN-45 cells grow in suspension, SHEP cells are adherent. The tests with SHEP cells were started as soon as the cells had grown on. By adding increasing concentrations of single domain VHH fragments that either inhibit catalase or SOD the protection of the tumor cells from their own ROS signaling was annulled so that based on the cell-owned extracellular superoxide anion production the NO/peroxynitrite signal path and the HOCl path (with MKN-45 cells) or in case of the SHEP cells only the NO/peroxynitrite path could start when the cells were incubated at 37° C. The analysis of the signal paths was carried out by the application of inhibitors of the NADPH oxidase (AEBSF), the HOCl scavenger taurine, the peroxynitrite scavenger FeTPPS and the singlet oxygen scavenger histidine. In some experiments for comparison instead of the single domain VHH fragments either recombinant Fab fragments or monoclonal antibodies were applied. This is indicated in the respective illustrations.
# Double preparations were examined at the times shown in the text by means of phase contrast reverse microscopy for the percentage of apoptotic cells. Here, the classical apoptosis criteria described and documented in Heinzelmann and Bauer 2010 such as condensation of the nucleus, fragmentation of the nucleus, and membrane blebbing were used. Per single preparation at least 250 randomly selected cells were examined for the presence of apoptosis features. […]
# [2] = biological target: T1, human catalase; test: ELISA selection of clones binding to human catalase
# Source text: […] […] In a second run, by employing the cell culture system described by Heinzelmann and Bauer (Heinzelmann S. and Bauer G. Multiple protective functions of catalase against intercellular apoptosis-inducing ROS signaling of human tumor cells, Biol. Chem. 391, 675-693, 2010) it was checked which one of the single domain VHH fragments binding to catalase actually results in an inhibition of the catalase, what is expressed as ROS-dependent apoptosis induction in the cells. […] The clones underlying the single domain VHH fragments were sequenced by standard methods and the amino acid sequence was determined therefrom.
# [3] = biological target: T1, human catalase; test: Check for inhibition (neutralization) of catalase, expressed as ROS-dependent apoptosis induction in cell culture system; type: cell-based; set-up: catalase-neutralizing single domain VHH fragments only neutralize the membranous catalase of tumor cells; endogenous in cells; host or cells: MKN-45 human gastric carcinoma cells
# Source text: For the determination of the neutralizing effect of single domain VHH or Fab fragments directed against catalase a test system is suitable that is based on the apoptosis-inducing effect of H2O2 and the degradation of H2O2 by catalase. Here, as the cellular test system both non-malignant and malignant cells can be employed. It is only required that apoptosis induction is quantitatively determinable in the selected cell system. As the H2O2 source, H2O2-generating glucose oxidase (GOX) is preferred over the direct addition of H2O2, because the continuous production of H2O2 by GOX (by using glucose from the culture medium of the cells) allows a very precise adjustment of the H2O2 flux. The test system is based on the inhibition of the apoptosis induction by GOX mediated by catalase and the restoration of the apoptosis induction by catalase-neutralizing single domain VHH or Fab fragments. […] For that, in general depending on the cell system, GOX concentrations between 0.1 and 40 mU/ml are required. In a second step, the concentration of human catalase is determined that is just sufficient to abolish the effect achieved by GOX. […] After successful determination of the suitable concentrations of GOX and catalase then the actual experiment for the determination of the catalase-neutralizing effect of single domain VHH or Fab fragments can be performed. For that, the selected catalase concentration is pre-incubated for 20 minutes with selected concentrations of the single domain VHH or Fab fragments to be tested. Subsequently, said mixture together with the concentration of GOX determined to be suitable is added to the cells and apoptosis induction is measured. A reliable neutralizing effect of the single domain VHH or Fab fragments is obtained if the inhibiting effect of the catalase on the GOX-mediated apoptosis induction was abolished by at least 90%, i.e. if 90% of the apoptosis induction value is achieved that is shown in control preparations without addition of catalase. If there is achieved an abolition of the inhibiting effect of catalase of at least 50% there may be assumed a significant inhibiting effect of the tested single domain VHH or Fab fragment. […]
# […] In a second run, by employing the cell culture system described by Heinzelmann and Bauer (Heinzelmann S. and Bauer G. Multiple protective functions of catalase against intercellular apoptosis-inducing ROS signaling of human tumor cells, Biol. Chem. 391, 675-693, 2010) it was checked which one of the single domain VHH fragments binding to catalase actually results in an inhibition of the catalase, what is expressed as ROS-dependent apoptosis induction in the cells. […] The clones underlying the single domain VHH fragments were sequenced by standard methods and the amino acid sequence was determined therefrom.
# [4] = test system: human neuroblastoma line SHEP; test: Standard preparation for apoptosis induction in SHEP cells (percentage of apoptotic cells); type: cell-based
# Method: as §1
# Double preparations were examined at the times shown in the text by means of phase contrast reverse microscopy for the percentage of apoptotic cells. Here, the classical apoptosis criteria described and documented in Heinzelmann and Bauer 2010 such as condensation of the nucleus, fragmentation of the nucleus, and membrane blebbing were used. Per single preparation at least 250 randomly selected cells were examined for the presence of apoptosis features.
# 10 000 cells of the human neuroblastoma line SHEP per 100 μl medium were mixed with the given concentrations of the catalase-neutralizing single domain VHH fragment aCATcb0972, the SOD-neutralizing single domain VHH fragment aSOD0989, the SOD-binding but not neutralizing single domain VHH fragment aSODcb991 and the hybrid molecule aCATaSOD and incubated for 5 hours at 37° C., 5% CO2, before percentages of apoptotic cells were determined.
# 10 000 cells of the human neuroblastoma line SHEP per 100 μl medium were mixed with the given concentrations of the SOD-neutralizing single domain VHH fragment aSOD0989. Parallel preparations received 20 μM or 100 μM of the NO donor sodium nitroprusside or were incubated without a further additive. After 5 hours at 37° C., 5% CO2 the percentages of apoptotic cells were determined.
# [5] = Table 2, FIG. 20 experiment, 3.5 hours
molecule,measurement,setting,value
"CC(=O)O[C@H]1C(=O)[C@@]2(C)[C@H]([C@H](OC(=O)c3ccccc3)[C@]3(O)C[C@H](OC(=O)[C@H](O)[C@@H](NC(=O)c4ccccc4)c4ccccc4)C(C)=C1C3(C)C)[C@]1(OC(C)=O)CO[C@@H]1C[C@@H]2O [taxol, reference compound]",displacement of the required taxol concentration by neutralizing single domain VHH fragments,[1]; 4 hours,less than a thousandth
same,optimum effect concentration of taxol alone,[1]; 4 hours,1100 ng/mL
same,apoptosis induction in MKN-45 cells,[1],induces apoptosis in the tumor cells in a concentration-dependent manner
monoclonal aCAT: neutralizing conventional monoclonal antibody against catalase (Sigma) as a control (protein) VHH: MAQVQLVESGGGLVQAGGSLRLSCAASERTFNTYGMGWFRQAPGKEREFVATISWSGDSTYYADSVKGRFTISRDNAKNTMYLQMNSLKPEDTAVYYCNANSEYGDSYWGQGTQVTVSSKKKHHHHHH,"optimum effect concentration (text, FIG. 20)",[1]; 3.5 hours,111 ng/mL
same,relation to opt. conc. single domain Fab,"[1]; Table 1, concentration basis, versus the corresponding single domain VHH",277 500
same,optimum conc.,"[1]; Table 1, concentration necessary for optimum apoptosis induction, taken from FIGS. 13A, 13B, 15A, 15B, 20",111 ng/mL
same,relation (molar basis),"[1]; Table 1, versus the corresponding single domain VHH",46 250
same,optimum conc.,[1]; [5],111 ng/mL
same,relation to opt. conc. hybrid Fab,"[1]; Table 2, concentration basis, versus hybrid aCATaSOD",4.6 × 10^8
same,relation (molar basis),"[1]; Table 2, versus hybrid aCATaSOD",1.54 × 10^8
"aCATcb0974: single domain VHH fragment that binds to and neutralizes human catalase; SEQ ID NO: 12 (protein, catalase binding) VHH: MAQVQLVESGGGLVQPGGSLRLSCAASGSIFSIASMGWYRQAPGKQRDLVATITSDGSTKYADSVKGRFTISRDNAKNTMYLQMNSVKPEDAAVYYCNADADDLEPGSYDYDYWGQGTQVTVSSKKKHHHHHH",binding to human catalase,[2],bind to human catalase
same,neutralization (inhibition) of human catalase,[3],neutralize it
"aCATcb0973: single domain VHH fragment binding to human catalase, but not neutralizing; SEQ ID NO: 11 (protein, catalase binding) VHH: MAEVQLVESGGGLVQPGGSLRLSCAVSGFIFNTYSMRWGRQAPGKGLEWVSSISTGGYSTYADSVKGRFTISRDNAKNLVYLQMNSLKPEDTAVYYCGWGAFVRGERPQGQGTQVTVSSKKKHHHHHH",binding to human catalase,[2],bind to human catalase
same,neutralization (inhibition) of human catalase,[3],do not neutralize it
"aCATaSOD: bispecific hybrid single domain VHH fragment of cb 0972 and cb 0989 connected via a linker; SEQ ID NO: 17 (protein, bispecific) VHH: MAQVQLVESGGGLVQAGGSLRLSCAASERTFNTYGMGWFRQAPGKEREFVATISWSGDSTYYADSVKGRFTISRDNAKNTMYLQMNSLKPEDTAVYYCNANSEYGDSYWGQGTQVTVSSGGGGSGGGGSGGGGSAQVQLVESGGGLVQSGGSLTLSCTASGFTISNYPMTWVRQAPGKGLEWVSRINSGGDRTLYADSVKGRFTVSRDNARNTMYLQMNNLKPEDTGLYFCADSGAGWRYWGQGTQVTVSSKKKHHHHHH",apoptosis induction after siRNA-mediated knockdown of FAS receptor or caspase-8,"[1]; 24 nM siRNA, four hours",does not require the FAS receptor and its downstream caspase-8; also recorded: prevents the supra-optimum drop of the apoptosis induction curve
same,"apoptosis induction after siRNA-mediated knockdown of NOX1, iNOS2 or caspase-9","[1]; 24 nM siRNA, four hours",completely prevents the apoptosis induction
same,apoptosis induction in the presence of peroxynitrite scavenger FeTPPS,[1]; 25 μM FeTPPS,complete inhibition by FeTPPS
same,apoptosis induction in the presence of NOX1 inhibitor AEBSF,[1]; 100 μM AEBSF,completely prevented
same,apoptosis induction in the presence of singlet oxygen scavenger histidine,[1]; 2 mM histidine,attenuating effect on the right-side drop of the optimum curve
same,apoptosis induction in the presence of HOCl scavenger taurine,[1]; 50 mM taurine,no inhibition by taurine
same,optimum conc.,[1]; [5],2.4e-07 ng/mL
same,apoptosis induction in MKN-45 cells,[1],gradually superior over the reverse arrangement
same,ROS signaling path induced,[1]; inhibitor analysis,exclusively the NO/peroxynitrite path
same,efficacy compared with single domain VHH fragments directed against one target structure,[4]; 5 hours,much more effective
same,apoptosis induction in SHEP cells,"[4]; 5 hours at 37° C., 5% CO2",can induce concentration-dependent apoptosis
"aCATcb0975: single domain VHH fragment binding to human catalase, but not neutralizing; SEQ ID NO: 13 (protein, catalase binding) VHH: MAQVQLVESGGGLVQPGGSLRLSCAASASIFSIYVMAWYRQAPGKQRELVATVTSGGATNYANSVKGRFTISRDNAKNTMDLQMNSLKPEDTAVYYCNAEDYYDYGLSRSKIYWGQGTQVTVSSKKKHHHHHH",binding to human catalase,[2],bind to human catalase
same,neutralization (inhibition) of human catalase,[3],do not neutralize it

# Reference: patent publication US10669350B2, “Antigen-binding constructs that bind to and inhibit catalase and/or superoxide dismutase as well as pharmaceutical compositions containing them for tumor therapy” (priority 2015, dated 2020)
